Results reported in patent publication US20090124570A1, “Methods and Compositions for Facilitating Tissue Repair and Diagnosing, Preventing, and Treating Fibrosis” (University of Maryland, Baltimore, priority 2007, published 2009).
“Also recorded” adds a separate entry of the source.

Key:
[1] = tested on: COL1A2 promoter; assay: Collagen promoter-CAT reporter construct in transfected fibroblasts; format: cell-based, human
Protocol: Production of collagen was measured in cell cultures utilizing the metabolic labeling of collagen with ^14C-proline as described by Luzina. I. G. Luzina et al. (2006) Am J Respir Cell Mol Biol. 35:298-305; I. G. Luzina et al. (2006) Arthritis Rheum. 54: 2643-2655. Briefly, fibroblast monolayers were pulsed with L-[U-^14C]-proline (Amersham Biosciences, Piscataway, N.J.) at 1 μCi/ml for the final 12 hours of incubation. Purified bacterial collagenase type III was purchased from Sigma Aldrich (St. Louis, Mo.). Fibroblasts were then ruptured by repeated freeze-thawing, and part of each sample digested with collagenase type III. The samples were pelleted with 20% TCA containing 0.1% L-proline, and then the pellets were resuspended and washed twice with 5% TCA and 95% ice-cold ethanol. The samples were assayed in a liquid scintillation counter in order to determine the amount of collagenase-digestible and non-digestible ^14C-labeled protein. Alternatively, collagen protein levels in cell culture supernatants were measured in Western blotting assays as described above. The activity of the COL1A2 promoter was measured in primary fibroblasts transfected with collagen promoter-chloramphenicol acetyltransferase (CAT) reporter constructs as described by Luzina. I. G. Luzina et al. (2006) Am J Respir Cell Mol Biol. 35:298-305. […]

[2] = tested on: primary pulmonary fibroblasts; details: as reported by Luzina et al. 2006; cited from earlier work
[3] = tested on: COL1A2 mRNA; assay: Real-time PCR of COL1A2 mRNA in fibroblasts; format: cell-based, human; details: BIGH3-treated vs control fibroblast cultures
Protocol: Total RNA purification, reverse transcription, and real-time PCR were performed using LightCycler (Roche, Indianapolis, Ind.), as previously described by Atamas. S. P. Atamas et al. (2003) Am J Respir Cell Mol Biol. 29:743-749. Quantification of internal control 18S ribosomal RNA was performed as reported previously by Luzina. I. G. Luzina et al. (2006) J Cell Physiol. 206:221-228. The PCR reaction mixture included the recommended components of the FastStart DNA Master Hybridization Probes Hot Start Reaction Mix (Roche, Indianapolis, Ind.). The fold difference in gene expression relative to 18S ribosomal RNA between treated and untreated cultures was calculated using the 2^−ΔΔCt method. I. G. Luzina et al. (2006) Arthritis Rheum. 54: 2643-2655. The primers and the hybridization probes for COL1A2 mRNA were designed and prepared by TIB Molbiol (Adelphia, N.J.). The primers for COL1A2 mRNA were: forward, 5′-GATGGTGAAGATGGTCCCACAGG-3′ (SEQ ID NO: 1) and reverse, 5′-GGTCGTCCGGGTTTTCCAGGGT-3′ (SEQ ID NO: 2). The hybridization probes were labeled with fluorescein at the 3′-terminus (3FL) of one probe and with LightCycler Red at the 5′-terminus (5LC) of the other probe. The probes were 3FL 5′-TTCCAAGGACCTGCTGGTGAGCCT-3′ (SEQ ID NO: 3) and 5LC 5′-TGAACCTGGTCAAACTGGTCCTGCAG-3′ (SEQ ID NO: 4). […]

[4] = tested on: p53; assay: Transcription factor array, DNA binding by p53 in fibroblasts; format: cell-based, human; details: fibroblasts stimulated with 300 ng/ml rhBIGH3
Protocol: (§1) Nuclear extracts from BIGH3-activated and control fibroblast cultures were prepared using nuclear extraction kit from Active Motif (Carlsbad, Calif.) and adjusted for total protein content using Bio-Rad assays. DNA binding by 345 different transcription factors was evaluated using protein/DNA TranSignal™ system (Panomics, Redwood City, Calif.), following the manufacturer's recommendations.

[5] = tested on: PU.1; assay: Transcription factor array, DNA binding by PU.1 in fibroblasts; format: cell-based, human; details: fibroblasts stimulated with 300 ng/ml rhBIGH3
Protocol: as §1

[6] = tested on: matrix metalloproteinase 2 (MMP2); assay: MMP2 levels in primary fibroblast cultures; format: cell-based, human; details: primary fibroblast cultures stimulated with recombinant BIGH3
[7] = tested on: MMP14; assay: Western blotting for MMP14 protein in primary fibroblasts; format: cell-based, human; details: fibroblasts with 300 ng/ml rhBIGH3 for 24 h or 48 h
Protocol: (§2) Preparation of cell lysates, immunoprecipitation of BIGH3 protein, normalization of protein concentration in the samples with BioRad assays, electrophoretic separation and Western blotting were performed as previously described by Atamas. S. P. Atamas et al. (2003) Am J Respir Cell Mol Biol. 29:743-749. Goat antibodies for BIGH3 were purchased from R&D Systems (Minneapolis, Minn.). Goat antibodies for MMP14 were purchased from Santa-Cruz Biotechnology (Santa Cruz, Calif.). Western blotting assays for collagen were performed using rabbit affinity purified anti-collagen type I antibody (Rockland, Gilbertsville, Pa.).
Experiments were performed to determine whether BIGH3 upregulates collagen levels in fibroblast cultures by attenuating collagen turnover. To address such a possibility, experiments were performed in which primary fibroblasts were incubated for 6 h with or without 300 ng/ml BIGH3. The expression levels of 84 genes related to connective tissue biology were analyzed using reverse transcriptase—real time PCR approach (RT^2 Profiler™ SuperArray, Frederick, Md.). […] These experiments were repeated on three independent occasions with primary fibroblast cultures from different donors, with consistent results. MMP14 is a critical factor for collagen turnover by fibroblasts. H. Lee et al. (2006) Mol Biol Cell. 17:4812-4826. […]

[8] = tested on: Smad3/4, Sp1, AP1, Ets; assay: Transcription factor array, DNA binding of collagen promoter regulators in fibroblasts; format: cell-based, human; details: BIGH3-stimulated vs control fibroblasts, transcription factor arrays
Protocol: Further experiments were performed to determine whether the increase in collagen levels stimulated by BIGH3 was due to transcriptional upregulation of the collagen gene expression.
as §1

[9] = tested on: primary pulmonary fibroblasts; assay: Collagen production in primary fibroblast cultures (14C-proline incorporation, Western blotting); format: cell-based, human; details: primary fibroblasts stimulated with rhBIGH3, various doses and times, 14C-proline incorporation and Western blotting
Protocol: as §2
Production of collagen was measured in cell cultures utilizing the metabolic labeling of collagen with ^14C-proline as described by Luzina. I. G. Luzina et al. (2006) Am J Respir Cell Mol Biol. 35:298-305; I. G. Luzina et al. (2006) Arthritis Rheum. 54: 2643-2655. […] Alternatively, collagen protein levels in cell culture supernatants were measured in Western blotting assays as described above. The activity of the COL1A2 promoter was measured in primary fibroblasts transfected with collagen promoter-chloramphenicol acetyltransferase (CAT) reporter constructs as described by Luzina. […]
To test this possibility, fibroblast cultures were incubated for various times with various doses of recombinant human BIGH3 (rhBIGH3), and the levels of collagen accumulation were measured. […]

Row | Molecule | response of collagen promoter-CAT reporter construct [1] | concentration of active TGF-β required for upregulation of collagen production [2] | collagen (COL1A2) mRNA steady-state levels [3] | DNA binding by p53 [4] | DNA binding by p53 ([4]; listed as BIGH3) | DNA binding by PU.1 [5] | DNA binding by PU.1 ([5]; listed as BIGH3) | MMP2 levels [6] | MMP14 protein levels [7] | DNA binding activity of Smad3/4, Sp1, AP1, Ets [8] | collagen protein levels [9] | collagen protein levels ([9]; listed as recombinant BIGH3)
1 | TGF-β [reference compound] | responsive | at least 500 pg/ml |  |  |  |  |  |  |  |  |  | 
2 | rhBIGH3: recombinant human BIGH3 (TGFBI, keratoepithelin), a 68 kDa extracellular matrix protein (protein, UniProt Q15582 24-683, looked up) Transforming growth …: GPAKSPYQLVLQHSRLRGRQHGPNVCAVQKVIGTNRKYFTNCKQWYQRKICGKSTVISYECCPGYEKVPGEKGCPAALPLSNLYETLGVVGSTTTQLYTDRTEKLRPEMEGPGSFTIFAPSNEAWASLPAEVLDSLVSNVNIELLNALRYHMVGRRVLTDELKHGMTLTSMYQNSNIQIHHYPNGIVTVNCARLLKADHHATNGVVHLIDKVISTITNNIQQIIEIEDTFETLRAAVAASGLNTMLEGNGQYTLLAPTNEAFEKIPSETLNRILGDPEALRDLLNNHILKSAMCAEAIVAGLSVETLEGTTLEVGCSGDMLTINGKAIISNKDILATNGVIHYIDELLIPDSAKTLFELAAESDVSTAIDLFRQAGLGNHLSGSERLTLLAPLNSVFKDGTPPIDAHTRNLLRNHIIKDQLASKYLYHGQTLETLGGKKLRVFVYRNSLCIENSCIAAHDKRGRYGTLFTMDRVLTPPMGTVMDVLKGDNRFSMLVAAIQSAGLTETLNREGVYTVFAPTNEAFRALPPRERSRLLGDAKELANILKYHIGDEILVSGGIGALVRLKSLQGDKLEVSLKNNVVSVNKEPVAEPDIMATNGVVHVITNVLQPPANRPQERGDELADSALEIFKQASAFSRASQRSVRLAPVYQKLLERMKH | no differences were observed; also recorded: non-responsive |  | no differences in steady-state levels; also recorded: did not stimulate an increase in collagen mRNA | downregulation | decreased | significant upregulation | increased | downregulation | decreased significantly | no differences were detected; also recorded: no increase in the activity | directly regulated collagen production; also recorded: Increases in collagen protein levels | upregulation of collagen protein
